This data set in a line: label from the status in PepcDB records.
For “MSRSLVFGTAGLALLLAAGGLLYSFGPDERRARAAPTPPDTTDTSGVYSQRAPSRNGIGKVYMGREISKVMGHRGANWLERPARAEKERPDLLVDSLPLGPSDTVADIGAGTGYLSFRVAPRVPQGNILAVDIQPEMLNMMRERIDERGVDNVTPIRGTVTDPQLPADSVDLAYMVDAYHEFSHPYEMMTALMEDLTPGGRVVLVEYPREDPSIPIKTLHKMTEAQAKKEMRAVGLEWVETKDMLPRQHFMVFRKPVE”, the protein production entry is listed as “failed”. Under “MNELDVREFYQKQFELSNYDINTERWLEQLAKEVKEQIGYPFQSMLELGAGNGGFARAMSNLNVKMTTVELVPELVMFAKEHSTNDIEVHCADFYKINFEEKFDIVTYLDGFGVGTDEEQLFLLKRIYNWLKDDGCALIDIYQPLYWEKANGQEMPIYSAMRKYEYDSENARMLDHWWEKDSSNDIVTQSLRCYTIDEISNLCAEARFSIVGIFPGGAYDFEERKYKEQASLNECLSYRIKVKKSKD” stands “failed”; under “MRDLITNRFTSQRTLREGSVGLLFLLGLGAFGVILLWLNRYTAAGSSYKAVVEFANAGGMQRGATVRYRGVKVGRISQIQPGPNAVEVEIEFAQSNLIIPRDVVIEANQTGLISESIIDITPKSSLPTGQTLPKPLDKNCDNSLIICNNSRLKGQIGISVDALIRSSTDFANTYTNPEFYQRVNRLLETSAQAATSVAALTQDFRGLTKSFQGQLGTFASTANTVQRATNELTVSTTKTVNQFGITADKFGTTATQASRLLSDLNSLLNTNRSSLVSALNNITETSNQLRLTVTNLSPSLNRLTQGELIKNLEALSANAAQASANLRNATESLNDPKNAVLLQQTLDSARLTFENTQKITSDLDELTGDPNFRQNLRQLVNGLSGLVSSTDQIEQQAKLATTLESMKAAADKPNITIPSLATHPSSNAVTIANNQPQVSSQEKLLQQLRDYAEQGSGEDKKQGSREQREELMKTDY”, “failed”. Under “MSNNTKRVGSQTIELKSKPRIIATYSVVGPREGQGPLKEYFDKILQDDCNGCESFEKAESSLMITAIEGVIKKGNVKEEDVDYLFSGDLLNQLTSTNFVAREFKIPFFGVYGACSTMAESLSLSSMIMDGDFAKYAIASTSSHFSSAERQFRFPLEYGCQRKEYSQWTVTGSGAMLLGKSGDYPYVTHVTTGIVKDYGIKDADNMGAAMAPAAVDTIYKHFVDTGRKPEDYDVIATGDLGAVGKKLTEELLKEYGYDISKVYIDCGEKIFDNEKQGTFAGGSGCGCSAVVACGYLYRMLKEKKLKRVLLVSTGALLSSTSALQGESIPGIAHAVAIEYILEHHHHHH” stands “not failed”; under “MKKFFIIGTDTEVGKTYISTKLIEVCEHQNIKSLCLKPVASGQSQFSELCEDVESILNAYKHKFTAAEINLISFNQAVAPHIIAAKTKVDISIENLKQFIEDKYNQDLDILFIEGAGGLLTPYSDHTTQLDLIKALQIPVLLVSAIKVGCINHTLLTINELNRHNIKLAGWIANCNDSNIKYIDEQINTIEELSGYKCSAKISRNADYLDFIDLSKILISPEENE”, “not failed”. Under “MIDSLLDEMTLEEQVSVLSGADFWTTVPVERLGIPKIKVTDGPNGARGGGSLVGGVKATCYPVAIALGATWNPALIEAMGVSLAGQVKSKGASVLLAPTVNIHRSGLNGRNFECYSEDPMLTAALAVAYIKGVQSQGVAATIKHFAGNESEIERQTMSSDIDERALREIYLLPFEQAVKKAGVMAVMSSYNRLNGTYTSEHNWLLTDVLREQWGFDGIVMSDWFGSHSTSESVNAGLDLEMPGPTRDRGEKLVQAVRDGTVRPETVREAAGRILTLLERVGAFSSAPDLSEHAEDLPADRALIRKIGAEGAVLLKNDNILPLEKASLKRVAVIGPNAAVARVMGGGSAQINAHYTISPLEGIRAALQGTADVQHSVACGNSRLVKLFSQPVTVEYFKGVNCQGTPVAAEAVQTGEFFWFELPSPDLSLTDFSVRFTGTFTPQEDGPHLLGMTNSGLAKLYVDGELVVDGYTDWKRGENFFGTANDEIRHSVEMKAGRSYAIKVEYLSPPPEEYGIHITAIRFGIERILGEDAMVEAVECAKGADVALLFVGREGQWDTEGLDLPDMRLPGRQEELIERVSAVNPNCIVVLQTGGPVEMPWLEKVKAVLQVWYPGQELGNAVADMLFGDQEPGGRLPQTFPKQLSDNSAITNDPSIYPGMDGHVRYEEGVFVGYRHHDSRTIEPLFPFGFGLNYTSFEWDEPKASASEMTASGVTVSVRVSNTGKRAGSDVVQLYVEAPVSGVERPLKELRAFAKIALEPGESGEVTLEINPRDLSYYDVDAAAFRAPAGDYRLLIGAHAQDIRSAITIVNPQEWLGAVGDRTI” stands “failed”; under “MAKTSRPSKAKQQALVHQLIGKIDAQPEDYHAYYELVVLLTAGQDFEQAEALAMKALGKFDHQQPAADYLRYALGNVYYQAQTYDKALPYYQQITDDQLKQDAYLMSAQALMAQHDYQHALVWAITAQEARPQQLDANLLVADILLALGNNQQASDYYQRAYKIDSQSGRAAFNLGLTAMVLGKPYATWFERAQKLDSQYFKSHQQQLTDIEKMLAAQADNQNH”, “failed”. As to “MARPHFALTSVFLASSVSLSAFGFSLPARAQSEDVAQKCQQPIKSVEASFAACTAAIDTGALSGKALAGAYIKRGFLRTRQRDLVGAEADLDAAIKANPDAADAYTTRANFWNVSGKPERALADADQAIKLDPNLPLAHFVRGSAELKLGHDDRAIADYSRAIELRPKESGEVYAVRGFAYHRKGDDIRAVADYTEALKAAPEDVGTLLNRGDARRNLRDTAGAAADYSEAIKLAPGNAGGFKGRGFIRLLTQDTGGAVADFTEAIRLSPSESGLYLNRASALGLQNQSLLALADEDMAIRLEPQHPLAYVNRAETLKLLGDKVAARASVTKALQLAPGFPPAVEVLKKLGEPKRSKEPSSEAAQEAYRRCTFPVTDLGPGEEGIKQIIKVCTLLVTAQGGSDANRALVHLQRGSMYRRQGDYQHALIDFSESLRYDPESALAYTGRGNAYRGLKLLDQALADHTEAIRLDPKYATAYNNRGNVWRDKNDLAKAIADFDRAIAISPNYAMAYFNRGNSRLESGDKEGAVADFQQTVKLSPQFKEAAERLQELGVRM”, the protein production result is on record as “failed”. In the case of “MMSIKWEQEWDRIYKEQGEVQSEILPTVKVEKDIFKRFGCKKVMDLGCGTGRHTIYLAQNGYQVFAVDISETGIEVTRAKAEKLNLTNIEFAQLDMRNLSVDDNLMDAIMCVWTSGHGTFEDARKNLKEMYRILRLGEILVIDYVSREDENYGKGTEIEKNTFINNVEGEENIPHHYFAKEEIEELYTDFSDVDINPVDYYFTDSYGTRHTIKAFVVIAVK”, the protein production result is recorded as “failed”. Under “MVAKGLIRIVLDILKPHEPIIPEYAKYLSELRGVEGVNITLMEIDKETENIKVTIQGNDLDFDEITRAIESYGGSIHSVDEVVAGRTMVEEVTTPQD” stands “failed”. As to “MADNYVIWFENLRMTDVERVGGKNASLGEMISQLTEKGVRVPGGFATTAEAYRAFLAHNGLSERISAALAKLDVEDVAELARVGKEIRQWILDTPFPEQLDAEIEAAWNKMVADAGGADISVAVRSSATAEDLPDASFAGQQETFLNINGLDNVKEAMHHVFASLYNDRAISYRVHKGFEHDIVALSAGVQRMVRSDSGASGVMFTLDTESGYDQVVFVTSSYGLGENVVQGAVNPDEFYVFKPTLKAGKPAILRKTMGSKHIKMIFTDKAEAGKSVTNVDVPEEDRNRFSITDEEITELAHYALTIEKHYGRPMDIEWGRDGLDGKLYILQARPETVKSQEEGNRNLRRFAINGDKTVLCEGRAIGQKVGQGKVRLIKDASEMDSVEAGDVLVTDMTDPDWEPVMKRASAIVTNRGGRTCHAAIIARELGIPAVVGCGNATELLKNGQEVTVSCAEGDTGFIYAGLLDVQITDVALDNMPKAPVKVMMNVGNPELAFSFANLPSEGIGLARMEFIINRQIGIHPKALLEFDKQDDELKAEITRRIAGYASPVDFYVDKIAEGVATLAASVYPRKTIVRMSDFKSNEYANLVGGNVYEPHEENPMLGFRGAARYVADNFKDCFALECKALKRVRDEMGLTNVEIMIPFVRTLGEAEAVVKALKENGLERGKNGLRLIMMCELPSNAVLAEQFLQYFDGFSIGSNDMTQLTLGLDRDSGLVSESFDERNPAVKVMLHLAISACRKQNKYVGICGQGPSDHPDFAKWLVEEGIESVSLNPDTVIETWLYLANELNK”, the protein production result is “not failed”.

Source of the values: a protein production outcome set (Wang et al. 2014).
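Also: failed if final PepcDB status was selected cloned or expressed and not failed if soluble or beyond.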
